From article PMC9712689 (Communications Biology, 2022)

T1: RlpA-Δ32·MltF2 complex (MST) (P. aeruginosa PAO1, UniProt Q9X6V6;Q9HZY1, amine reactive RED-NHS dye)
T1 sequence 1: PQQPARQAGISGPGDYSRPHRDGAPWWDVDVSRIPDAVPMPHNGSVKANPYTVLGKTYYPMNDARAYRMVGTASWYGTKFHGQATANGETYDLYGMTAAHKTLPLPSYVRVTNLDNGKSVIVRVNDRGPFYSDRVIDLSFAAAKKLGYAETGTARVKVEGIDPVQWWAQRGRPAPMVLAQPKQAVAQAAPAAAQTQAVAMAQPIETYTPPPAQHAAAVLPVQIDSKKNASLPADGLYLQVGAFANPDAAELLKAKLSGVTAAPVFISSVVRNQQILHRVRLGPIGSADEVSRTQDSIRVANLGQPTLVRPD
T1 sequence 2: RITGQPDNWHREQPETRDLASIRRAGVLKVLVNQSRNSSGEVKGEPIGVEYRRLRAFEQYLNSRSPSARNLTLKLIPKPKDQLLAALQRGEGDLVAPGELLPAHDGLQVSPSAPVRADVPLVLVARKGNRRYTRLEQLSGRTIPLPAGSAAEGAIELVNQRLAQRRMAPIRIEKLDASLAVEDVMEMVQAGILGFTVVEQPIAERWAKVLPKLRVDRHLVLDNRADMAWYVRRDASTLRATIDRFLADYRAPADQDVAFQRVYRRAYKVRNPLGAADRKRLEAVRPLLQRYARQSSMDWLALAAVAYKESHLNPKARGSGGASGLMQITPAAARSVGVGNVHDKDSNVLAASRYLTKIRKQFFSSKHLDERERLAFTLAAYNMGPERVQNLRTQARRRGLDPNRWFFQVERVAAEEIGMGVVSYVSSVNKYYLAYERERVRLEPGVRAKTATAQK

T2: RlpA-Δ32, fluorescently labeled (P. aeruginosa PAO1, UniProt Q9X6V6 32-342, amine reactive RED-NHS dye)
T2 construct: source: E. coli BL21-star (DE3), purified (Ni-NTA), labelled with RED-NHS dye
T2 sequence: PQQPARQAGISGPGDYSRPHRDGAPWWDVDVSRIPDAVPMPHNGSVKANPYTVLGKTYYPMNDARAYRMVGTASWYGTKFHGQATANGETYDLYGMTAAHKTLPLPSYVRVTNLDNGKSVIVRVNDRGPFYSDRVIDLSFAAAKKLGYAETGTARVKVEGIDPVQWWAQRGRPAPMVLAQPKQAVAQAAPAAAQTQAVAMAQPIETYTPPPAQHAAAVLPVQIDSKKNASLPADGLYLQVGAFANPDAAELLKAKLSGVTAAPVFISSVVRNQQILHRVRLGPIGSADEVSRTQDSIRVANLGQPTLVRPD

T3: RlpA-Δ32 (P. aeruginosa PAO1, UniProt Q9X6V6 32-342)
T3 construct: source: E. coli BL21-star (DE3), purified (Ni-NTA)
T3 sequence: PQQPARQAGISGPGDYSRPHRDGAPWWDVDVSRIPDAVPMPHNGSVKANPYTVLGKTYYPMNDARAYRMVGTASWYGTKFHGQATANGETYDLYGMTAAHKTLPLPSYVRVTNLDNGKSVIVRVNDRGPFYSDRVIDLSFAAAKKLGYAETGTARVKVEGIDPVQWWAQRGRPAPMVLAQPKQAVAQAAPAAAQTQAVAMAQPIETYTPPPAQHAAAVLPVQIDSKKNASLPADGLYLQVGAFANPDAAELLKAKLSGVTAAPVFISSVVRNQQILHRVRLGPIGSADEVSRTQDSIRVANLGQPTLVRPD


How the values were obtained:
Details in all cases: both partners purified
[1] = target: T1, RlpA-Δ32·MltF2 complex (MST); assay: MST
[2] = target: T2, RlpA-Δ32, fluorescently labeled; assay: MST
RlpA-Δ32 = target: T3, RlpA-Δ32; assay: SPR

Binder | Kd [1] | Kd [2] | Kd (RlpA-Δ32) | koff (RlpA-Δ32) | kon (RlpA-Δ32)
PilA (natural protein, source: E. coli, purified (Ni-NTA or Strep-Tactin)) PQYQNYVARSEGASALATINPLKTTVEESLSRGIAGSKIKIGTTASTATETYVGVEPDANKLGVIAVAIEDSGAGDITFTFQTGTSSPKNATKVITLNRTADGVWACKSTQDPMFTPKGCDN | 309 nM | 240 nM | 1980 nM | 0.00218 s⁻¹ | 1100 M⁻¹ s⁻¹
MltF (enzyme, P. aeruginosa PAO1, UniProt Q9HXN1 33-490, looked up) PTALERVQKEGVLRVITRNSPATYFQDRNGETGFEYELAKRFAERLGVELKIETADNLDDLYAQLSREGGPALAAAGLTPGREDDASVRYSHTYLDVTPQIIYRNGQQRPTRPEDLVGKRIMVLKGSSHAEQLAELKKQYPELKYEESDAVEVVDLLRMVDVGDIDLTLVDSNELAMNQVYFPNVRVAFDFGEARGLAWALPGGDDDSLMNEVNAFLDQAKKEGLLQRLKDRYYGHVDVLGYVGAYTFAQHLQQRLPRYESHFKQSGKQLDTDWRLLAAIGYQESLWQPGATSKTGVRGLMMLTNRTAQAMGVSNRLDPKQSIQGGSKYFVQIRSELPESIKEPDRSWFALAAYNIGGAHLEDARKMAEKEGLNPNKWLDVKKMLPRLAQKQWYAKTRYGYARGGETVHFVQNVRRYYDILTWVTQPQMEGSQIAESGLHLPGVNKTRPEEDSGDEKL | 260 nM |  |  |  | 
SltB2 (enzyme, P. aeruginosa PAO1, UniProt Q9I4G6 1-398, looked up) QPDASSFPSCLAGLQKKAQAQGISADSYERFTSGLQADLSVLDLLDAQPEFTTPLWDYLAGLVDEQRVSDGKAMLAQHDKLLDQVAARYGVDKYTVVAVWGVESDYGRIFGKRPLLTSLSTLSCYGRRQSFFQGEFLATLKLLQAGDIRDAGITGSWAGAFGHTQFMPSTYARIAVDFDGDGRRDLVGSVPDALGSTANYLKKAGWRTGQPWGYEVKVPADFPASLAGRGKRQPLSAWVARGVRRVDGQPLPGGDEKAAILLPAGAQGPAFLVYRNYDAIYSYNAAESYALAIALLSDRLRGGSGLVASWPTDDPGISRLERKQLQKALLARGYDIGEADGLIGTSTRKAIQAEQKRLGLTPADGRAGRKILEALKGAQP | 150 nM |  |  |  | 
TypA (natural protein, P. aeruginosa PAO1, UniProt Q9HU67 1-605, looked up) MIENLRNIAIIAHVDHGKTTLVDKLLKLSGTLDRKEAESERVMDSNDQEKERGITILAKNTAIKWNGYNINIVDTPGHADFGGEVERVMSMVDSVLLVVDAQDGPMPQTRFVTQKAFKAGLRPIVVVNKIDRPGARPDWVIDQIFDLFDNLGATDEQLDFPIVYASALNGIAGLDHEKMDDNMDALFQAIIDHVPAPVVDTEGPFQMQISQLDYNSFLGVIGIGRITRGKVKSNTPVVAISDDGSKRNGRILKIMGHHGLQRVEVAEAEAGDIVCVSGMEELFISDTLCDPQNVEALPPLTVDQPTVSMTFQVNDSPFAGREGKFVTSRNIKERLEKELLHNVALRVEPGDSPEKFKVSGRGELHLSVLIETMRREGFELAVGRPEVVIIEKDGEKQEPYENVTIDIEEQHQGSVMEQMGLRKGDLSNMIPDGKGRVRLEYTIPARGLIGFRNNFLTLTSGTGILTSTFSHYGPIKAGEVSNRQNGVLVSMATGTALTYSLETLQSRGKLFLGPGDEIYEGQLAGINSRDNDLVINPTKGKKLDNMRASGKDEVIALVPPIRFTLEQALEFIADDELVEVTPKSIRLRKKMLNENDRKRYERSKV | 1800 nM |  |  |  | 
AlgO (natural protein, source: E. coli, purified (Ni-NTA or Strep-Tactin)) STAVSVGSAQNSWDSLQPDREQVIASLNVVELLKRHHYNKPPLNDERSAKIYDSYLKMLDPARMYFTAGDIAEFDRWRNRFDDFLKSGDLDPGFVIYKRHLDRLKGRLDYALAMLDKGVDKIDFSVDESLLIDREKAPWAKDTAELDDLWRKKVKDEVLRLKITGKDDKAIQEQLTKRYKNQLSRLKQTRSEDIFQAYINAFAQSYDPHTQYLSPDNAENFDINMSLSLEGIGAVLQSDNDYVKVVRLVPAGPAAKSKQIATSDKIIGVAQGKGEMVDVVGWRLDEVVKLIRGPKGSQVRLEVIPASNAPNDQTSKIVAITREAVKLEDQAAKKSIIKVDHEGRSYKLGVIDLPAFYLDFKAYRAGDPNYKSTTRDVKKLVAELQKDKVDGIVLDLRNNGGGSLQEATELTGLFIDQGPTVLVRNSDGRVDVLNDDEGKAFYTGPLAVLVNRLSASASEIFAGAMQDYHRALILGGQTFGKGTVQTIQPLNHGELKLTLAKFYRVSGQSTQHQGVIPDISYPSIVDDKEIGESALPDSMPWDTIRPVVKDEANPFKPFLAQLKAQHDARTENNADFVYARERLALAQELMKEKTVSLNEAKRRAQQTSIENRQLAMENALRKSKGQEPLKELKREDENALPEEDDKTKPQDDAYLTESGHILLDYLNLNSAVAKH | 16000 nM |  |  |  | 
PBP7 (enzyme, P. aeruginosa PAO1, UniProt P72161 24-310, looked up) SPPPKAGLPLQQELASGSALVTDQNTGKVLYSRNPDLVVPIASITKLMTAMVVLDSKLPLDEVLPIAISETSEMRGVFSRVRVGSQISRRDMLLLALMSSENRAAASLAQNYPGGKNAFVKAMNAKAHALGMKNTRYVEPTGLSLHNVSTARDLTRLLVASRQYPLLSQWSTTPEKTVAFRHPNYTLGFRNTNHLINNKTWNIQLTKTGFTNEAGHCLVMRTTINRSPVNLVVLDAFGKYTHFADATRLRRWLETGQVTAIPAAAKAYRLQRDRERGLGQPVAQAVR |  | 430 nM |  |  | 5900 M⁻¹ s⁻¹
MltA (enzyme, P. aeruginosa PAO1, UniProt Q9I4B6 1-385, looked up) DDGKKEPPPKPAEVTTYNSVPWDALPATSDADLLAGFNAWRSACARLAKDPVWGEPCASATTVAADPTAVRAFLQERMQVYSLRSSSNGDQGLITGYYEPVYHGSLSQGEKTPVPVYGVPDDLVVVALESVYPELKGKRLRGRLEGRVLKPYDDAATIRDNGSSAPVLAWLGDPMDLQFLQIQGSGRIQLEDGRQLRIGYGDQNGHPYKPVGRWLVEQGLVPKEEISMKRIRDWAEANPQRVSELLASNPSFVFFSLRPDSDEGPRGSLNVPLTDGYSVAIDRKVIPLGSLMWLSTTRPDDGSAVVRPVAAQDTGGAIVGEVRADLFWGTGDAAGELAGHMKQPGRLWLLWPKGAPLPAS | 35 nM |  |  |  | 
SltB1 (enzyme, P. aeruginosa PAO1, UniProt Q9HX24 1-340, looked up) GDYDGSPQVAEFVSEMTRDYGFAGEQLMGLFRDVNRKQSILDAISRPAERVKQWKEYRPIFISDARISRGVDFWNKHAEDLARAEKEYGVPAEIIVSIIGVETFFGRNTGSYRVMDALSTLGFDYPPRADFFRKELREFLLLAREQQVDPLSLTGSYAGAMGLPQFMPSSFRAYAVDFDGDGHINIWSDPTDAIGSVASYFKQHGWVTGEPVVSVAEINDESAESAVTRGVDPTMSLGELRARGWRTHDALRDDQKVTAMRFVGDKGIEYWVGLPNFYVITRYNRSAMYAMAVYQLAGEIARARGAH | 95 nM | 140 nM | 3850 nM | 0.00127 s⁻¹ | 330 M⁻¹ s⁻¹
LptE (natural protein) not shown | 150 nM | 77 nM |  |  | 
PBP4 (enzyme, P. aeruginosa PAO1, UniProt Q9HZG1 1-476, looked up) QVNATLPANVQKALQTNKLTGNDLSLVLIPLDGPGNPTYYNADVSVNPASTMKLFTTYAALEMLGPTYQWKTEFYTDGQLKNGVLNGNLYLKGGGDPKLNMEKLWLLMRDLRANGVTKVTGDLVLDRSYFNIPQLPVFNDDGGDDTKPFLVGPDSLLVNLKSVRMVVRTDGNKVNVQMDPPLANVRIDNQVKMTAPATCPAWPKLRFSPVTQFDGTTLLATGQIPQGCSAQTYMSLLDHPGYTAGAVRGIWQELGGSILGKDRQGSVPRNATLIAKAFSPDLVEIIRDINKYSNNTMARQLFLSIGAQFRNSADGDDAQAAQRVVRQWLARKGITAPRLVMENGSGLSRQERVSAREMAAMLQAAWHSPYAAEYISSLPLAGLDGTMRKRLRRTALVGEAHVKTGTLNTVRALAGFSRDASGHNWVVVAILNSPRPWGASAILDQVLLSLHARK | 240 nM |  |  |  | 
MltD (enzyme, P. aeruginosa PAO1, UniProt Q9I2T2 1-534, looked up) QGSGQIKGEAQAKAARPGARAVDVQFNPSWLHTQPGQNAAYNDIWDRMRDGFQLQDAISTNPRIERQRLWFLSNQSFLEQSSARGSLYMHYVVERLEERNMPLELALLPVIESAYNPFALSRSNAAGLWQFIPATGQHFNLRQTNFYDGRRDITASTNAALTYLERLHDMFNGDWMLALAAYNAGEGTVSRAIERNEKLGLPTDYWNLPLPQETQDYVPKLLALSQIVMAPDSYGISLNPINNEPYFQAVRVKRGIDLSSVAALANLDEDELYQLNPAYKRRVTMDGPQQLLVPMEKAAFLTASLDTLKPKEVTAWQQYRVRSGDSLHSIANRYRITVAELKSANRLSSNHLRKGQQLSIPGQIAGGAVKPVYQQLARQASTPARTRSYKVKNGDSLWQIARNNGVDVNDLKRWNGLDKHALKVGQTLKLQGGTQALAARKGNAAGKRDSATYYKVKQGDSMYLIAKRFNVEMKHLQRWNPRSKQALKPGQTLTLYLDTASR | 220 nM |  |  |  | 
MltB (enzyme, P. aeruginosa PAO1, UniProt Q9HVX3 1-367, looked up) SSEPTPPPKPAAKPQARTVISPRPVRQSVQPILPLRGDYANNPAAQHFIDRMVSQHGFNRQQLHDLFAQTQRLDWVIRLMDRQAPTYTPPSGPNGAWLRYRKKFVTPGNVQNGVLFWDQYETDLQRASRVYGVPPEIIVGIIGVETRWGRVMGKTRIIDALSTLSFSYPRRAEFFSGELEQFLLQARKEGTDPLALRGSYAGAMGYGQFMPSSFTKYAVDFDGDGHIDLWNPRDAIGSVANYFKQHGWVSGDRVAVPASGRAPSLEDGFKTLYPLDVLASAGLRPQGPLGGHRQASLLRLDMGRNYQYWYGLPNFYVITRYNHSTHYAMAVWELGKEVDRVRHRSVVRQD | 110 nM |  |  |  | 
